Test results from the supplement of paper PMC5998384.

Assays:
HeLa Kyoto [1] = assay: solubility in G1/S (NP-40 vs SDS abundance) (log2 ratio); higher = more soluble; settings: cell cycle stage: G1/S
HeLa Kyoto [2] = assay: melting temperature (median over replicates), in situ; higher = more thermally stable
HeLa Kyoto [3] = assay: solubility change mitosis vs G1/S (difference of NP-40 vs SDS log2 ratios) (log2 ratio difference); higher = more soluble in mitosis
HeLa Kyoto [4] = assay: thermal stability score vs G1/S (z-score of summed log2 fold changes over temperatures); higher = more thermally stable than in G1/S
[5] = cell cycle stage: early G1 (4.5 h after nocodazole release)
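For melting temperature (median over replicates), in situ in this document: HeLa Kyoto cells synchronized by double thymidine or nocodazole block, proteins quantified by TMT10plex mass spectrometry, three independent biological replicates.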
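For solubility change mitosis vs G1/S (difference of NP-40 vs SDS log2 ratios) in this document: synchronized HeLa Kyoto cells (double thymidine block for G1/S, nocodazole release for mitosis), protein amounts in NP-40 versus SDS lysates quantified by mass spectrometry, three biological replicates.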
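For solubility in G1/S (NP-40 vs SDS abundance) in this document: HeLa Kyoto cells arrested at G1/S by double thymidine block, proteins quantified by TMT10plex mass spectrometry in mild NP-40 versus SDS extracts, three biological replicates.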
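For thermal stability score vs G1/S (z-score of summed log2 fold changes over temperatures) in this document: synchronized HeLa Kyoto cells, proteins quantified by TMT10plex mass spectrometry, three biological replicates, mitosis taken 0.5 h after nocodazole release, G1/S directly after double thymidine block.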

Substance | solubility in G1/S (log2) (HeLa Kyoto [1]) | melting temperature (HeLa Kyoto [2]; cell cycle stage: G1/S) | melting temperature (HeLa Kyoto [2]; cell cycle stage: mitosis) | solubility change mitosis (log2) (HeLa Kyoto [3]) | thermal stability score (HeLa Kyoto [4]; [5]) | thermal stability score (HeLa Kyoto [4]; cell cycle stage: mitosis)
MADKQISLPAKLINGGIAGLIGVTCVFPIDLAKTRLQNQQNGQRVYTSMSDCLIKTVRSEGYFGMYRGAAVNLTLVTPEKAIKLAANDFFRHQLSKDGQKLTLLKEMLAGCGAGTCQVIVTTPMEMLKIQLQDAGRIAAQRKILAAQGQLSAQGGAQPSVEAPAAPRPTATQLTRDLLRSRGIAGLYKGLGATLLRDVPFSVVYFPLFANLNQLGRPASEEKSPFYVSFLAGCVAGSAAAVAVNPCDVVKTRLQSLQRGVNEDTYSGILDCARKILRHEGPSAFLKGAYCRALVIAPLFGIAQVVYFLGIAESLLGLLQDPQA [SLC25A22] | 0.299 | 56.1 °C | 55.4 °C | -0.111 | 0.207 | -1.95
MHPPKTPSGALHRKRKMAAWPFSRLWKVSDPILFQMTLIAALLPAVLGNCGPPPTLSFAAPMDITLTETRFKTGTTLKYTCLPGYVRSHSTQTLTCNSDGEWVYNTFCIYKRCRHPGELRNGQVEIKTDLSFGSQIEFSCSEGFFLIGSTTSRCEVQDRGVGWSHPLPQCEIVKCKPPPDIRNGRHSGEENFYAYGFSVTYSCDPRFSLLGHASISCTVENETIGVWRPSPPTCEKITCRKPDVSHGEMVSGFGPIYNYKDTIVFKCQKGFVLRGSSVIHCDADSKWNPSPPACEPNSCINLPDIPHASWETYPRPTKEDVYVVGTVLRYRCHPGYKPTTDEPTTVICQKNLRWTPYQGCEALCCPEPKLNNGEITQHRKSRPANHCVYFYGDEISFSCHETSRFSAICQGDGTWSPRTPSCGDICNFPPKIAHGHYKQSSSYSFFKEEIIYECDKGYILVGQAKLSCSYSHWSAPAPQCKALCRKPELVNGRLSVDKDQYVEPENVTIQCDSGYGVVGPQSITCSGNRTWYPEVPKCEWETPEGCEQVLTGKRLMQCLPNPEDVKMALEVYKLSLEIEQLELQRDSARQSTLDKEL [C4BPA] | -0.459 | 54.4 °C | 56.1 °C | -0.146 | 5.62 | 9.17
MSSMWSEYTIGGVKIYFPYKAYPSQLAMMNSILRGLNSKQHCLLESPTGSGKSLALLCSALAWQQSLSGKPADEGVSEKAEVQLSCCCACHSKDFTNNDMNQGTSRHFNYPSTPPSERNGTSSTCQDSPEKTTLAAKLSAKKQASIYRDENDDFQVEKKRIRPLETTQQIRKRHCFGTEVHNLDAKVDSGKTVKLNSPLEKINSFSPQKPPGHCSRCCCSTKQGNSQESSNTIKKDHTGKSKIPKIYFGTRTHKQIAQITRELRRTAYSGVPMTILSSRDHTCVHPEVVGNFNRNEKCMELLDGKNGKSCYFYHGVHKISDQHTLQTFQGMCKAWDIEELVSLGKKLKACPYYTARELIQDADIIFCPYNYLLDAQIRESMDLNLKEQVVILDEAHNIEDCARESASYSVTEVQLRFARDELDSMVNNNIRKKDHEPLRAVCCSLINWLEANAEYLVERDYESACKIWSGNEMLLTLHKMGITTATFPILQGHFSAVLQKEEKISPIYGKEEAREVPVISASTQIMLKGLFMVLDYLFRQNSRFADDYKIAIQQTYSWTNQIDISDKNGLLVLPKNKKRSRQKTAVHVLNFWCLNPAVAFSDINGKVQTIVLTSGTLSPMKSFSSELGVTFTIQLEANHIIKNSQVWVGTIGSGPKGRNLCATFQNTETFEFQDEVGALLLSVCQTVSQGILCFLPSYKLLEKLKERWLSTGLWHNLELVKTVIVEPQGGEKTNFDELLQVYYDAIKYKGEKDGALLVAVCRGKVSEGLDFSDDNARAVITIGIPFPNVKDLQVELKRQYNDHHSKLRGLLPGRQWYEIQAYRALNQALGRCIRHRNDWGALILVDDRFRNNPSRYISGLSKWVRQQIQHHSTFESALESLAEFSKKHQKVLNVSIKDRTNIQDNESTLEVTSLKYSTSPYLLEAASHLSPENFVEDEAKICVQELQCPKIITKNSPLPSSIISRKEKNDPVFLEEAGKAEKIVISRSTSPTFNKQTKRVSWSSFNSLGQYFTGKIPKATPELGSSENSASSPPRFKTEKMESKTVLPFTDKCESSNLTVNTSFGSCPQSETIISSLKIDATLTRKNHSEHPLCSEEALDPDIELSLVSEEDKQSTSNRDFETEAEDESIYFTPELYDPEDTDEEKNDLAETDRGNRLANNSDCILAKDLFEIRTIKEVDSAREVKAEDCIDTKLNGILHIEESKIDDIDGNVKTTWINELELGKTHEIEIKNFKPSPSKNKGMFPGFK [BRIP1] | -0.0862 | – | – | -0.00076 | 0.36 | 1.88
MAARAVLDEFTAPAEKAELLEQSRGRIEGLFGVSLAVLGALGAEEPLPARIWLQLCGAQEAVHSAKEYIKGICEPELEERECYPKDMHCIFVGAESLFLKSLIQDTCADLCILDIGLLGIRGSAEAVVMARSHIQQFVKLFENKENLPSSQKESEVKREFKQFVEAHADNYTMDLLILPTSLKKELLTLTQGEENLFETGDDEVIEMRDSQQTEFTQNAATGLNISRDETVLQEEARNKAGTPVSELTKQMDTVLSSSPDVLFDPINGLTPDEEALSNERICQKRRFSDSEERHTKKQFSLENVQEGEILHDAKTLAGNVIADLSDSSADSENLSPDIKETTEEMEYNILVNFFKTMGYSQEIVEKVIKVYGPSTEPLLLLEEIEKENKRFQEDREFSAGTVYPETNKTKNKGVYSSTNELTTDSTPKKTQAHTQQNMVEKFSQLPFKVEAKPCTSNCRINTFRTVPIEQKHEVWGSNQNYICNTDPETDGLSPSVASPSPKEVNFVSRGASSHQPRVPLFPENGLHQQPEPLLPNNMKSACEKRLGCCSSPHSKPNCSTLSPPMPLPQLLPSVTDARSAGPSDHIDSSVTGVQRFRDTLKIPYKLELKNEPGRTDLKHIVIDGSNVAITHGLKKFFSCRGIAIAVEYFWKLGNRNITVFVPQWRTRRDPNVTEQHFLTQLQELGILSLTPARMVFGERIASHDDRFLLHLADKTGGIIVTNDNFREFVNESVSWREIITKRLLQYTFVGDIFMVPDDPLGRSGPRLEEFLQKEVCLRDMQPLLSALPNVGMFDPSFRVPGTQAASTSHQPPTRIQGAPSSHWLPQQPHFPLLPALPSLQQNLPMPAQRSSAETNELREALLKIFPDSEQRLKIDQILVAHPYMKDLNALSAMVLD [N4BP1] | 0.0767 | – | – | -0.0226 | 1.68 | 2.82
MKLKLKNVFLAYFLVSIAGLLYALVQLGQPCDCLPPLRAAAEQLRQKDLRISQLQAELRRPPPAPAQPPEPEALPTIYVVTPTYARLVQKAELVRLSQTLSLVPRLHWLLVEDAEGPTPLVSGLLAASGLLFTHLVVLTPKAQRLREGEPGWVHPRGVEQRNKALDWLRGRGGAVGGEKDPPPPGTQGVVYFADDDNTYSRELFEEMRWTRGVSVWPVGLVGGLRFEGPQVQDGRVVGFHTAWEPSRPFPVDMAGFAVALPLLLDKPNAQFDSTAPRGHLESSLLSHLVDPKDLEPRAANCTRVLVWHTRTEKPKMKQEEQLQRQGRGSDPAIEV [B3GAT3] | 0.166 | – | – | -0.044 | -0.256 | -0.376
MSENLDKSNVNEAGKSKSNDSEEGLEDAVEGADEALQKAIKSDSSSPQRVQRPHSSPPRFVTVEELLETARGVTNMALAHEIVVNGDFQIKPVELPENSLKKRVKEIVHKAFWDCLSVQLSEDPPAYDHAIKLVGEIKETLLSFLLPGHTRLRNQITEVLDLDLIKQEAENGALDISKLAEFIIGMMGTLCAPARDEEVKKLKDIKEIVPLFREIFSVLDLMKVDMANFAISSIRPHLMQQSVEYERKKFQEILERQPNSLDFVTQWLEEASEDLMTQKYKHALPVGGMAAGSGDMPRLSPVAVQNYAYLKLLKWDHLQRPFPETVLMDQSRFHELQLQLEQLTILGAVLLVTFSMAAPGISSQADFAEKLKMIVKILLTDMHLPSFHLKDVLTTIGEKVCLEVSSCLSLCGSSPFTTDKETVLKGQIQAVASPDDPIRRIMESRILTFLETYLASGHQKPLPTVPGGLSPVQRELEEVAIKFARLVNYNKMVFCPYYDAILSKILVRS [TCP11L1] | 0.346 | – | – | 0.1 | 1.37 | 1.4
PPL | -0.342 | – | – | 0.304 | -0.748 | 1.36
NHSL1 | -0.0561 | – | – | -0.0684 | 0.447 | 1.09
MSSILPFTPPIVKRLLGWKKGEQNGQEEKWCEKAVKSLVKKLKKTGQLDELEKAITTQNVNTKCITIPRSLDGRLQVSHRKGLPHVIYCRLWRWPDLHSHHELRAMELCEFAFNMKKDEVCVNPYHYQRVETPVLPPVLVPRHTEIPAEFPPLDDYSHSIPENTNFPAGIEPQSNIPETPPPGYLSEDGETSDHQMNHSMDAGSPNLSPNPMSPAHNNLDLQPVTYCEPAFWCSISYYELNQRVGETFHASQPSMTVDGFTDPSNSERFCLGLLSNVNRNAAVELTRRHIGRGVRLYYIGGEVFAECLSDSAIFVQSPNCNQRYGWHPATVCKIPPGCNLKIFNNQEFAALLAQSVNQGFEAVYQLTRMCTIRMSFVKGWGAEYRRQTVTSTPCWIELHLNGPLQWLDKVLTQMGSPSIRCSSVS [SMAD3] | -0.184 | – | – | 0.0397 | -0.574 | -1.15
MTTEQRRSLQAFQDYIRKTLDPTYILSYMAPWFREEEVQYIQAEKNNKGPMEAATLFLKFLLELQEEGWFRGFLDALDHAGYSGLYEAIESWDFKKIEKLEEYRLLLKRLQPEFKTRIIPTDIISDLSECLINQECEEILQICSTKGMMAGAEKLVECLLRSDKENWPKTLKLALEKERNKFSELWIVEKGIKDVETEDLEDKMETSDIQIFYQEDPECQNLSENSCPPSEVSDTNLYSPFKPRNYQLELALPAMKGKNTIICAPTGCGKTFVSLLICEHHLKKFPQGQKGKVVFFANQIPVYEQQKSVFSKYFERHGYRVTGISGATAENVPVEQIVENNDIIILTPQILVNNLKKGTIPSLSIFTLMIFDECHNTSKQHPYNMIMFNYLDQKLGGSSGPLPQVIGLTASVGVGDAKNTDEALDYICKLCASLDASVIATVKHNLEELEQVVYKPQKFFRKVESRISDKFKYIIAQLMRDTESLAKRICKDLENLSQIQNREFGTQKYEQWIVTVQKACMVFQMPDKDEESRICKALFLYTSHLRKYNDALIISEHARMKDALDYLKDFFSNVRAAGFDEIEQDLTQRFEEKLQELESVSRDPSNENPKLEDLCFILQEEYHLNPETITILFVKTRALVDALKNWIEGNPKLSFLKPGILTGRGKTNQNTGMTLPAQKCILDAFKASGDHNILIATSVADEGIDIAQCNLVILYEYVGNVIKMIQTRGRGRARGSKCFLLTSNAGVIEKEQINMYKEKMMNDSILRLQTWDEAVFREKILHIQTHEKFIRDSQEKPKPVPDKENKKLLCRKCKALACYTADVRVIEECHYTVLGDAFKECFVSRPHPKPKQFSSFEKRAKIFCARQNCSHDWGIHVKYKTFEIPVIKIESFVVEDIATGVQTLYSKWKDFHFEKIPFDPAEMSK [DDX58] | -0.211 | – | – | -0.199 | 0.775 | 0.756
MATPDVSVHMEEVVVVTTPDTAVDGSGVEGVKTVLVTTNLAPHGGDLTEDNMETENAAAAAAAAFTASSQLKEAVLVKMAEEGENLEAEIVYPITCGDSRANLIWRKFVCPGINVKCVQYDEHVISPKEFVHLAGKSTLKDWKRAIRMNGIMLRKIMDSGELDFYQHDKVCSNTCRSTKIDLSGARVSLSSPTSAEYIPLTPAAADVNGSPATITIETCEDPGDWTAAIGDDTFTFWRGLKDAGLLDEVIQEFHQELVETMRGLQQRVQDPPLQLRDAVLLNNIVQNFGMLDLVKKVLASHKCQMDRSREQYARDLAALEQQCDEHRRRAKELKHKSQHLSNVLMTLTPVSLPPPVKRPRLARATSGPAAMASQVLTQSAQLALGPGVPVPQLTSVPLGKVVSTLPSTVLGKGSLQAPPASSPASPLLGGYTVLASSGSTYPSTVEIHPDASSLTVLSTAAVQDGSTVFKVVSPLQLLTLPGLGPTLQNVAQASPGSSTIVTVPAGAAPGPEEHTATIEVAAMAEDHERK [GMEB2] | -0.0692 | – | – | 0.0606 | 0.359 | 0.761
